Changes are numbered by the printed parent chain.
T1: cSIRPαV2D1 with histidine tag (cynomolgus monkey (Macaca fascicularis), UniProt Q5TFQ8 30-146 (human entry))
T1 construct: also called cynomolgus monkey SIRPαV2D1; not shown: histidine tag
T1 chain: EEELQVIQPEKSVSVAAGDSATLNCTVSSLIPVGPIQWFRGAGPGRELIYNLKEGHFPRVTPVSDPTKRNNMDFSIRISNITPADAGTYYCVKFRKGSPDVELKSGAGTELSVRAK

T2: cSIRPαV1D1 with histidine tag (cynomolgus monkey (Macaca fascicularis), UniProt Q5TFQ8 30-146 (human entry))
T2 construct: also called cynomolgus monkey SIRPαV1D1; not shown: histidine tag
T2 chain: T1 chain with D19E, V27A, S28T, A42V, N51H, L52Q

B1: Ab9_G4 (antibody, human IgG4 S228P, kappa, V domains shown)
VH: EVQLVESGGGLVKPGGSLRLSCAASGFTFSSYVMSWVRQTPGKGLEWVATISSGGTYTYYPNSVKGRFTLSRDNAKNSLYLQMNSLRAEDTAVYYCVSSMTGSSFDYWGQGTTVTVSS
VL: DIVITQSPASLAVSLGERATISCRASESVDSYGNSFMHWYQQKPGQPPKLLIYRASNLESGVPDRFSGSGSRTDFTLTINPLQAEDVATYYCHQSSEQLPWTFGGGTKVEIKR
notes: human IgG4 format
B2: Ab4_G4 (antibody, human IgG4 S228P, kappa)
heavy: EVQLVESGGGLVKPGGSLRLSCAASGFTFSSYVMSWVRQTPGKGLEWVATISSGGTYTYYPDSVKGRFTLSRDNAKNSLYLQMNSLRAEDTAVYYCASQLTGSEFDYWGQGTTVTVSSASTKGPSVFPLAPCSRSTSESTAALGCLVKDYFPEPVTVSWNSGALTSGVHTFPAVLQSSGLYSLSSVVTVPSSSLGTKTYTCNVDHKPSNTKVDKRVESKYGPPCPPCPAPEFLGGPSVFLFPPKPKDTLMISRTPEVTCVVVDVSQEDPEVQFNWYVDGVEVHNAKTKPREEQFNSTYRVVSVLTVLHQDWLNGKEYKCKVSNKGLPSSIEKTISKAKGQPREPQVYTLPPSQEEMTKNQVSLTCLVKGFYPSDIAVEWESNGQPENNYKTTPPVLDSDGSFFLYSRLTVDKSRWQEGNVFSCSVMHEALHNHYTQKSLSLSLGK
light: DIVITQSPASLAVSLGERATISCRASESVDSYGNSFMHWYQQKPGQPPKLLIYRASNLESGVPDRFSGSGSRTDFTLTINPLQAEDVATYYCHQSADLPWTFGGGTKVEIKRTVAAPSVFIFPPSDEQLKSGTASVVCLLNNFYPREAKVQWKVDNALQSGNSQESVTEQDSKDSTYSLSSTLTLSKADYEKHKVYACEVTHQGLSSPVTKSFNRGEC
notes: human IgG4 format
B3: Ab8_G4 (antibody, human IgG4 S228P, kappa, V domains shown)
VH: B1 VH with N62E, V97A, S99Q, M100L, S104E
VL: DIVMTQSPASLAVSLGERATISCRASESVDSYGNSFMHWYQQKPGQPPKLLIYRASNLESGVPDRFSGSGSRTDFTLTINPLQAEDVATYYCHQSADLPWTFGGGTKVEIKR
notes: human IgG4 format
B4: Ab12_G4 (antibody, human IgG4 S228P, kappa)
heavy: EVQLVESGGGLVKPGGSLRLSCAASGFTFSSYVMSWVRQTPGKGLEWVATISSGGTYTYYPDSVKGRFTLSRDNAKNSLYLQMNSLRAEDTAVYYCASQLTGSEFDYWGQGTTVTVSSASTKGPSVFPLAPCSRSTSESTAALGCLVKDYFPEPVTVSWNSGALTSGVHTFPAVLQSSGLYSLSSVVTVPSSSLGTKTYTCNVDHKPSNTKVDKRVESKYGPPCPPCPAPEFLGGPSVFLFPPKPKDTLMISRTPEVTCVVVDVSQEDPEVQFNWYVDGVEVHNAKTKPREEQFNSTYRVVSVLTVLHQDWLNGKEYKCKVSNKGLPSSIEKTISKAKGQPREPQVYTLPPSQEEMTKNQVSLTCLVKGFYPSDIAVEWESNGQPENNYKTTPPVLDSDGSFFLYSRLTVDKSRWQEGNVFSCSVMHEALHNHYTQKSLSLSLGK
light: B2 light with I4L
notes: human IgG4 format
B5: Ab2_G4 (antibody, human IgG4 S228P, kappa, V domains shown)
VH: B1 VH with N62D, V97A, M100V, T101D, S104A
VL: B1 VL with N34M, Q98N
notes: human IgG4 format
B6: Ab1_G2 (antibody, human IgG2, V domains shown)
VH: B1 VH with N62S, V97A, M100L
VL: B1 VL with I4L, S31L, N34T, E97D, Q98E
B7: Ab11_G2 (antibody, human IgG2, V domains shown)
VH: B1 VH with N62D, V97A, S99Q, M100L, S104E
VL: B3 VL with M4I, A96G
notes: same antibody as Ab11_G4 except human IgG2 CH1, hinge, CH2 and CH3
B8: Ab9_G2 (antibody, human IgG2, V domains shown)
VH: B1 VH
VL: B1 VL
notes: same antibody as Ab9_G4 except human IgG2 CH1, hinge, CH2 and CH3
B9: Ab24_G4 (antibody, human IgG4 S228P, kappa)
heavy: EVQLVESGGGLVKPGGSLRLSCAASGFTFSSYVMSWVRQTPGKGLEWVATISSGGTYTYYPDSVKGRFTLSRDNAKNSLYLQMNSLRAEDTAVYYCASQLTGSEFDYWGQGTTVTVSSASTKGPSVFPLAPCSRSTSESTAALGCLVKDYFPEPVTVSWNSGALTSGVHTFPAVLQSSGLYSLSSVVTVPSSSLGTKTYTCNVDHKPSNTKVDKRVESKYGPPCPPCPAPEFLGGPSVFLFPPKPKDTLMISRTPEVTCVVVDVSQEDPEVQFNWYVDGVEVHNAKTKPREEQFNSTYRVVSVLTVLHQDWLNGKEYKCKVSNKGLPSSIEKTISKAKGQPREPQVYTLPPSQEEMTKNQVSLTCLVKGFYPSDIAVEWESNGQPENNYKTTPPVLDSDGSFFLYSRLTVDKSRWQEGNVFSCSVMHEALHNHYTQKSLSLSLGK
light: DIVLTQSPASLAVSLGERATISCRASESVDLYGTSFMHWYQQKPGQPPKLLIYRASNLESGVPDRFSGSGSRTDFTLTINPLQAEDVATYYCHQSSDELPWTFGGGTKVEIKRTVAAPSVFIFPPSDEQLKSGTASVVCLLNNFYPREAKVQWKVDNALQSGNSQESVTEQDSKDSTYSLSSTLTLSKADYEKHKVYACEVTHQGLSSPVTKSFNRGEC
notes: human IgG4 format

These binders were tested against T3, hSIRPαV2 expressed on the cell surface (human, UniProt P78324 31-504) (assay: FACS competition on EXPI293 cells stably expressing hSIRPαV2: biotinylated hCD47:Fc (2.5 µg/ml) mixed with serial dilutions of the antibody, bound hCD47:Fc detected with streptavidin-PE (MFI); blocked ligand: hCD47:Fc).
T3 construct: whole, on cells; also called human SIRPα variant V2
T3 sequence (P78324 other isoform, or with tags, fused parts or gaps limits assumed): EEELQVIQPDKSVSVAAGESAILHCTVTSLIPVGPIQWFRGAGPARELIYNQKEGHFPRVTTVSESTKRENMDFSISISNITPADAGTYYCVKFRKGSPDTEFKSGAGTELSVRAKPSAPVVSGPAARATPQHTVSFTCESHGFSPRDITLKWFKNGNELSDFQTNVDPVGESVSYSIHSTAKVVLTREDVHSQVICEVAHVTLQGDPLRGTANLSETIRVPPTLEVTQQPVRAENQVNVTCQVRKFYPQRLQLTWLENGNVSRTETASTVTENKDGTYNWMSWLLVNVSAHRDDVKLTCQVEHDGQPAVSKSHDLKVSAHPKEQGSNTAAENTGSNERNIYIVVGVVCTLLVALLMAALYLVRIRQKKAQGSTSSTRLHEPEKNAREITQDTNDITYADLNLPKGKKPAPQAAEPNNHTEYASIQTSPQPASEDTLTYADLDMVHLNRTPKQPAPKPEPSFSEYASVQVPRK
Experimental: The x axes show the antibody concentration in μg/ml. The y axes show mean fluorescence intensity (MFI) at about 572 nm (due to binding of biotinylated CD47:Fc, detected by a streptavidin-phycoerythrin conjugate).
Some of the anti-SIRPα antibodies described above were tested in vitro for their ability to inhibit binding of CD47 to hSIRPαV1 or hSIRPαV2 expressed on the surface of EXPI293™ cells stably transfected with DNA encoding these proteins. Briefly, stable transfectants expressing hSIRPαV1 or hSIRPαV2 were seeded into 96-well microtiter plates. […] After 30 minutes incubation, cells were washed, streptavidin-phycoerythrin (streptavidin-PE) was added, and cells were subjected to FACS to detect bound hCD47:Fc. Results were reported as a mean fluorescence intensity (MFI) using FlowJo software (FLOWJO, L.L.C., Ashland, Oreg., USA). FIGS. 4 and 5 show the MFI detected on the y axes of both panels and the antibody concentration on the x axes of both panels.
For B1, the “IC50 (read off the curve)” value was roughly 0.4 µg/mL.

The binders below were run against T4, hSIRPγD1 with histidine tag (human, UniProt Q9P1W8 31-149) (assay: SPR (Biacore 3000), IgG captured on anti-human IgG, His-tagged D1 analyte).
T4 construct: also called first immunoglobulin-like domain of human SIRP Gamma; not shown: histidine tag
T4 sequence (Q9P1W8 31-149): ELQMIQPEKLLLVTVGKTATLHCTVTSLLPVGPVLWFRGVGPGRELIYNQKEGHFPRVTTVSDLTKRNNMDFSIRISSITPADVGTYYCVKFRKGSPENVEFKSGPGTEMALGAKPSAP
Text: (§1) Goat anti-human IgG capture antibody (Jackson Laboratories; 109-005-098) was immobilized on the four flow cells in each sensor chip using standard amine coupling chemistry. About 8000 resonance units (RU) of this antibody was immobilized on each flow cell. Flow cells 2, 3, and 4 were used to analyze captured anti-SIRPα antibodies (about 250 to 300 RU were captured on each of flow cells 2, 3, and 4), while flow cell 1 was used as the reference flow cell. The analytes tested were hSIRPαV1D1, hSIRPαV2D1, cynomolgus monkey SIRPαV1D1 (cSIRPαV1D1), cSIRPαV2D1, hSIRPβ1D1, and hSIRPγD1, each of which also included a histidine tag. The sequences of cSIRPαV1D1 and cSIRPαV2D2 are provided in SEQ ID NOs: 143 and 142, respectively. To avoid confusion, the differences between the amino acid sequences of cSIRPαV1D1 and cSIRPαV2D1 are not the same as the differences between the amino acid sequences of hSIRPαV1D1 and hSIRPαV2D1. […] The amino acid sequence of hSIRPβ1D1 can be found in amino acids 30-148 of SEQ ID NO: 144, and the amino acid sequence of hSIRPγD1 can be found in amino acids 31-149 of SEQ ID NO: 141.
(§2) Generally, concentrations from about 0.1×KD to about 10×KD are appropriate for kinetic analysis. From one to six different concentrations were evaluated for each antibody:analyte interaction, depending on the comparisons to be made in an individual experiment. All analyte dilutions were prepared in HPS-EP buffer. Multiple blank (running buffer) injections were run and used to assess and subtract system artifacts. The association phase and dissociation phase for all analyte concentrations were monitored for 180 seconds and 300 seconds, respectively, at a flow rate of 50 μL/min. Between antibody samples, the surfaces of the flow cells were regenerated with 10 mM glycine, pH 1.5 using two injections, each lasting 12 seconds at a flow rate of 50 μL/min.
(§3) The data were analyzed using BIAevaluation software (Biacore, General Electric (GE)). The data was fit using the 1:1 Langmuir model.
Binder B2 has a Kd of roughly 4560 nM. Work on B3 yielded a Kd of roughly 6200 nM. Binder B4 has a Kd of roughly 5020 nM. With B5 the Kd was roughly 944 nM. B6 gave a Kd of 168 nM. B7 was tested, and the Kd was roughly 3060 nM. B1 was tested, and the Kd was roughly 616 nM. Binder B8 has a Kd of roughly 457 nM. For B9, the Kd was 140 nM.

What follows are binders tested against T5, hSIRPαV2D1 with histidine tag (human) in the same assay as above.
T5 construct: analyte of the Biacore experiments; also called first immunoglobulin-like domain of human SIRPα variant V2; not shown: histidine tag
T5 sequence (chain, as listed by the source limits assumed): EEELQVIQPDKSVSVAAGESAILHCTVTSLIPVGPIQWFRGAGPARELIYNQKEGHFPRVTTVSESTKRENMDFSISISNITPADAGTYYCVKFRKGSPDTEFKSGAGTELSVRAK
Text: as §1, §2, §3
Binder B2 has a Kd of 4.04 nM. B3 gave a Kd of 6.02 nM. B4 was tested, and the Kd was 4.6 nM. Binder B5 has a Kd of 3.06 nM. In the case of B6, the Kd is reported as 2.51 nM. B7 showed a Kd of 1.92 nM. In the case of B1, the Kd is reported as 2.97 nM. B8 was tested, and the Kd was 2.11 nM. For B9, the Kd was 0.956 nM.

Molecular target: T1, cSIRPαV2D1 with histidine tag
Experiment: as above
Text: as §1, §2, §3
B2 showed a Kd of roughly 714 nM. B3 gave a Kd of roughly 1050 nM. With B4 the Kd was roughly 727 nM. In the case of B5, the Kd is reported as roughly 709 nM. For B6, the Kd was 287 nM. With B7 the Kd was roughly 475 nM. B1 gave a Kd of roughly 432 nM. In the case of B8, the Kd is reported as roughly 426 nM.

Each binder was assayed against T6, hSIRPαV1D1 with histidine tag (human, UniProt P78324 31-147) in the same assay as above.
T6 construct: analyte of the Biacore experiments; also called first immunoglobulin-like domain of human SIRPα variant V1; not shown: histidine tag
T6 sequence (P78324 31-147 limits assumed): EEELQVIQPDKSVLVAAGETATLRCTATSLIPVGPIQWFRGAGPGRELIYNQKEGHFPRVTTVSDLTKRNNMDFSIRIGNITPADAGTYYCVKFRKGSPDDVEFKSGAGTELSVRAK
Text: as §1, §2, §3
B2 was tested, and the Kd was 307 nM. B3 gave a Kd of 411 nM. B4 was tested, and the Kd was 348 nM. B5 was tested, and the Kd was 226 nM. For B6, the Kd was 50.7 nM. For B7, the Kd was 125 nM. B1 gave a Kd of 102 nM. Work on B8 yielded a Kd of 75 nM. Binder B9 has a Kd of 21.4 nM.

Molecular target: T2, cSIRPαV1D1 with histidine tag
Experiment: as above
Text: as §1, §2, §3
With B2 the Kd was 165 nM. B3 showed a Kd of 256 nM. For B4, the Kd was 197 nM. With B5 the Kd was 145 nM. B6 gave a Kd of 26.9 nM. In the case of B7, the Kd is reported as 98 nM. With B1 the Kd was 183 nM. B8 gave a Kd of 155 nM. In the case of B9, the Kd is reported as 8.59 nM.

These binders were tested against T7, hSIRPβ1D1 with histidine tag (human, UniProt O00241 30-148) in the same assay as above.
T7 construct: analyte of the Biacore experiments; also called hSIRPβD1; not shown: histidine tag
T7 sequence (O00241 30-148): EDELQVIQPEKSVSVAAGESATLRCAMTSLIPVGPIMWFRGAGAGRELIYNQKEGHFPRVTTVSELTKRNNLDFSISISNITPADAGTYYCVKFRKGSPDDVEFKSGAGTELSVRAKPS
Text: as §1, §2, §3
Binder B2 has a Kd of 24.3 nM. B3 was tested, and the Kd was 44.3 nM. Work on B4 yielded a Kd of 29 nM. In the case of B5, the Kd is reported as 53.6 nM. B6 was tested, and the Kd was 1.39 nM. B7 showed a Kd of 8.58 nM. With B1 the Kd was 6.43 nM. Binder B8 has a Kd of 6.63 nM. For B9, the Kd was 0.217 nM.

What follows are binders tested against T3, hSIRPαV2 expressed on the cell surface (assay: flow cytometry on primary human monocytes (FSC/SSC gate) in PBMCs expressing only SIRPαV2, antibody detected with APC-(Fab)2 goat anti-human IgG Fc (MFI at about 670 nm)).
Experimental: FIG. 6: Binding of anti-SIRPα antibodies to T cells and monocytes. Methods are described in Example 4. […] The x axes show the antibody concentration in μg/ml. The y axes show mean fluorescence intensity (MFI) at about 670 nm (due to binding of allophycocyanin (APC)-conjugated (Fab)₂ goat anti-human IgG Fc-specific secondary antibody).
Some of the anti-SIRPα antibodies were tested in vitro for binding to primary T cells and monocytes in peripheral blood mononuclear cells (PBMCs). Briefly, PBMCs that expressed only SIRPα V2 were seeded in 96-well microtiter plates. Serial dilutions of anti-SIRPα antibodies were incubated with the cells on ice for 30 minutes. […] The cells were then subjected to FACs. T cells were gated based on their anti-CD4 or anti-CD8 binding (detected by FITC fluorescence), since T cells commonly express either CD4 or CD8. Monocytes were gated based on their forward scatter/side scatter (FSC/SSC) profile, since a characteristic FSC/SSC profile can identify monocytes. See, e.g., Marimuthu et al., Characterization of human monocytes subsets by whole blood flow cytometry analysis, J. Vis. Exp. (140), e57941, doi:10.3791/57941 (2018). The binding of anti-SIRPα antibodies to each population was reported as a mean fluorescence intensity (MFI) of the APC channel (670 nm).
B9 was tested, and the “EC50 (read off the curve)” value was roughly 0.03 µg/mL.

From patent US20220235144A1 (QILU PUGET SOUND BIOTHERAPEUTICS, published 2022)
